Results on one protein are retold here after publication PMC8778713, “Knockout of Arabidopsis thaliana VEP1, Encoding a PRISE (Progesterone 5β-Reductase/Iridoid Synthase-Like Enzyme), Leads to Metabolic Changes in Response to Exogenous Methyl Vinyl Ketone (MVK)” (Metabolites, 2021).

Test in all cases: purified protein
Holding throughout (type): biochemical, Arabidopsis thaliana

Substrate in data set [1]: NC(=O)C1=CN([C@@H]2O[C@H](COP(=O)(O)OP(=O)(O)OC[C@H]3O[C@@H](n4cnc5c(N)ncnc54)[C@H](OP(=O)(O)O)[C@@H]3O)[C@@H](O)[C@H]2O)C=CC1
The settings on record: progesterone as the substrate; varied: cofactor.

Substrate in data set [2]: CC(=O)[C@H]1CC[C@H]2[C@@H]3CCC4=CC(=O)CC[C@]4(C)[C@H]3CC[C@]12C
The settings on record: 0.2 mM NADPH; substrate 0.05 to 1.6 mM.

Substrate in data set [3]: C=CC(C)=O
The note with it: 0.2 mM NADPH; substrate 0.05 to 1.6 mM.

B1: rAtStR2 (A. thaliana steroid reductase 2) (Arabidopsis thaliana) (protein)
chain: MGSENGSLMRRNEVDENVALIFGVTGLVGREIVKTLLMSKPGWRIYGVARNPEINSMTKMYNFISCDLLNASETKQRLSPLQDIVSHVFWVTWSGEFPLDTDECCVQNKTMLMNALDAILPNAKRLKHFSLQTGMKHYVSLVEETMARGEGSSLYYYSEECPRKSSGKNFYYVLEDLLKEKITRSSVVWSVQRPGLLMGSSSRTLYNFMGSLCVYGAMCKYLNLPFVFGGTRECWEESYIDGSDSNLVAEQHIFAATSGKVREKGEAFNAINGVGFTWKEIWPEIGKKLGVQVNETTMFDEGFWFGREMVERKHVWDEIVVKEKLVRTEIEDLANWYFLDALFRCPFKLLGKREKVDRFGFKRKYRTLDSVLYWIDVMRDEKLIPL
notes: tag removal not mentioned
Take B1: in “purified protein [1]”, the Michaelis-Menten constant (Km) – broadly, the substrate concentration at which the rate is half of its maximum – was determined as 41.0 µM; the turnover number (kcat) – broadly, the number of substrate molecules converted per active site and unit of time at saturation – was 0.12 s⁻¹; the catalytic efficiency (kcat/Km) (commonly the turnover number divided by the Michaelis constant) was found to be 2930 M⁻¹ s⁻¹. Also, in the data set “purified protein [2]”, the Km amounted to 64.7 µM, the catalytic constant (kcat) was 0.15 s⁻¹ and the kcat/Km came to 2310 M⁻¹ s⁻¹. Also, in the data set “purified protein [3]”, the Michaelis-Menten constant (Km) is 157.5 µM, the kcat stood at 0.03 s⁻¹ and the specificity constant (kcat/Km) came to 163 M⁻¹ s⁻¹.
